What is called Kd is the concentration at which binding is half-saturated.

We go through 8 variants from publication PMC5454376 (2017).

B1: Human His-Gαi3 WT [human] / Fluorescein-labelled GIV peptide (residues 1,671–1,701) [modified: 5,6-carboxyfluorescein coupled to the resin-bound peptide after chain elongation; 5,6-carboxyfluorescein coupled to the resin-bound peptide … (parent complex)
chain 1: MGCTLSAEDKAAVERSKMIDRNLREDGEKAAKEVKLLLLGAGESGKSTIVKQMKIIHEDGYSEDECKQYKVVVYSNTIQSIIAIIRAMGRLKIDFGEAARADDARQLFVLAGSAEEGVMTPELAGVIKRLWRDGGVQACFSRSREYQLNDSASYYLNDLDRISQSNYIPTQQDVLRTRVKTTGIVETHFTFKDLYFKMFDVGGQRSERKKWIHCFEGVTAIIFCVALSDYDLVLAEDEEMNRMHESMKLFDSICNNKWFTETSIILFLNKKDLFEEKIKRSPLTICYPEYTGSNTYEEAAAYIQCQFEDLNRRKDTKEIYTHFTCATDTKNVQFVFDAVTDVIIKNNLKECGLY
chain 2: KTGSPGSEVVTLQQFLEESNKLTSVQIKSSS

This assay covers variants of B1. Briefly: fluorescence polarisation.
For the variant chain 1 MGCTLSAEDKAAVERSKMIDRNLREDGEKAAKEVKLALLGAGESGKSTIVKQMKIIHEDGYSEDECKQYKVVVYSNTIQSIIAIIRAMGRLKIDFGEAARADDARQLFVLAGSAEEGVMTPELAGVIKRLWRDGGVQACFSRSREYQLNDSASYYLNDLDRISQSNYIPTQQDVLRTRVKTTGIVETHFTFKDLYFKMFDVGGQRSERKKWIHCFEGVTAIIFCVALSDYDLVLAEDEEMNRMHESMKLFDSICNNKWFTETSIILFLNKKDLFEEKIKRSPLTICYPEYTGSNTYEEAAAYIQCQFEDLNRRKDTKEIYTHFTCATDTKNVQFVFDAVTDVIIKNNLKECGLY [chain 1 L37A], the Kd turned out to be 478 nM.

Turning to chain 1 MGCTLSAEDKAAVERSKMIDRNLREDGEKAAKEVKLLLAGAGESGKSTIVKQMKIIHEDGYSEDECKQYKVVVYSNTIQSIIAIIRAMGRLKIDFGEAARADDARQLFVLAGSAEEGVMTPELAGVIKRLWRDGGVQACFSRSREYQLNDSASYYLNDLDRISQSNYIPTQQDVLRTRVKTTGIVETHFTFKDLYFKMFDVGGQRSERKKWIHCFEGVTAIIFCVALSDYDLVLAEDEEMNRMHESMKLFDSICNNKWFTETSIILFLNKKDLFEEKIKRSPLTICYPEYTGSNTYEEAAAYIQCQFEDLNRRKDTKEIYTHFTCATDTKNVQFVFDAVTDVIIKNNLKECGLY [chain 1 L39A], the Kd worked out at 3080 nM.

Take chain 1 MGCTLSAEDKAAVERSKMIDRNLREDGEKAAKEVKLLLLGAGESGKSTIVKQMKIIHEDGYSEDECKQYKVVVYSNTIQSIIAIIRAMGRLKIDFGEAARADDARQLFVLAGSAEEGVMTPELAGVIKRLWRDGGVQACFSRSREYQLNDSASYYLNDLDRISQSNYIPTQQDVLRTRVKTTGIVETHFTFKDLYFKMFDVGGQRSERKKWIHCFEGVTAIIFCVALSDYDLVLAEDEEMNRMHESMKLFDSICNNAWFTETSIILFLNKKDLFEEKIKRSPLTICYPEYTGSNTYEEAAAYIQCQFEDLNRRKDTKEIYTHFTCATDTKNVQFVFDAVTDVIIKNNLKECGLY [chain 1 K257A]: the Kd came to 870 nM.

Take chain 1 MGCTLSAEDKAAVERSKMIDRNLREDGEKAAKEVKALLLGAGESGKSTIVKQMKIIHEDGYSEDECKQYKVVVYSNTIQSIIAIIRAMGRLKIDFGEAARADDARQLFVLAGSAEEGVMTPELAGVIKRLWRDGGVQACFSRSREYQLNDSASYYLNDLDRISQSNYIPTQQDVLRTRVKTTGIVETHFTFKDLYFKMFDVGGQRSERKKWIHCFEGVTAIIFCVALSDYDLVLAEDEEMNRMHESMKLFDSICNNKWFTETSIILFLNKKDLFEEKIKRSPLTICYPEYTGSNTYEEAAAYIQCQFEDLNRRKDTKEIYTHFTCATDTKNVQFVFDAVTDVIIKNNLKECGLY [chain 1 L36A]: the Kd was 706 nM.

chain 1 MGCTLSAEDKAAVERSKMIDRNLREDGEKAAKEVKLLLLGAGESGKSTIVKQMKIIHEDGYSEDECKQYKVVVYSNTIQSIIAIIRAMGRLKIDFGEAARADDARQLFVLAGSAEEGVMTPELAGVIKRLWRDGGVQACFSRSREYQLNDSASYYLNDLDRISQSNYIPTQQDVLRTRVKTTGIVETHFTFKDLYFKMFDVGGQRSERKKWIHCFEGVTAIIFCVALSDYDLVLAEDEEMNRMHESMKLFDSICNNKFFTETSIILFLNKKDLFEEKIKRSPLTICYPEYTGSNTYEEAAAYIQCQFEDLNRRKDTKEIYTHFTCATDTKNVQFVFDAVTDVIIKNNLKECGLY [chain 1 W258F]: the Kd amounted to 1820 nM.

As for chain 1 MGCTLSAEDKAAVERSKMIDRNLREDGEKAAKEVKLLLLGAGESGKSTIVKQMKIIHEDGYSEDECKQYKVVVYSNTIQSIIAIIRAMGRLKIDFGEAARADDARQLFVLAGSAEEGVMTPELAGVIKRLWRDGGVQACFSRSREYQLNDSASYYLNDLDRISQSNYIPTQQDVLRTRVKTTGIVETHFTFKDLYFKMFDVGGQRSERKKWIHCFEGVTAIIFCVALSDYDLVLAEDEEMNRMHESMKLFDSICNNKWATETSIILFLNKKDLFEEKIKRSPLTICYPEYTGSNTYEEAAAYIQCQFEDLNRRKDTKEIYTHFTCATDTKNVQFVFDAVTDVIIKNNLKECGLY [chain 1 F259A], the Kd is 1260 nM.

chain 1 MGCTLSAEDKAAVERSKMIDRNLREDGEKAAKEVKLLLLGAGESGKSTIVKQMKIIHEDGYSEDECKQYKVVVYSNTIQSIIAIIRAMGRLKIDFGEAARADDARQLFVLAGSAEEGVMTPELAGVIKRLWRDGGVQACFSRSREYQLNDSASYYLNDLDRISQSNYIPTQQDVLRTRVKTTGIVETHFTFKDLYFKMFDVGGQRSERKKWIHCFEGATAIIFCVALSDYDLVLAEDEEMNRMHESMKLFDSICNNKWFTETSIILFLNKKDLFEEKIKRSPLTICYPEYTGSNTYEEAAAYIQCQFEDLNRRKDTKEIYTHFTCATDTKNVQFVFDAVTDVIIKNNLKECGLY [chain 1 V218A]: the Kd came to 362 nM.

On to chain 1 MGCTLSAEDKAAVERSKMIDRNLREDGEKAAKEVKLLLLGAGESGKSTIVKQMKIIHEDGYSEDECKQYKVVVYSNTIQSIIAIIRAMGRLKIDFGEAARADDARQLFVLAGSAEEGVMTPELAGVIKRLWRDGGVQACFSRSREYQLNDSASYYLNDLDRISQSNYIPTQQDVLRTRVKTTGIVETHFTFKDLYFKMFDVGGQRSERKKWIHCFEGVTAIIFCVALSDYDLVLAEDEEMNRMHESMKLFDAICNNKWFTETSIILFLNKKDLFEEKIKRSPLTICYPEYTGSNTYEEAAAYIQCQFEDLNRRKDTKEIYTHFTCATDTKNVQFVFDAVTDVIIKNNLKECGLY [chain 1 S252A], for which the dissociation constant Kd was found to be 243 nM.
